To fix the notation:
T1: RAP-IDU (fusion of RAP and human α-L-iduronidase) (human, UniProt P35475 28-653, limits assumed)
T1 construct: iduronidase served as reporter
T1 sequence: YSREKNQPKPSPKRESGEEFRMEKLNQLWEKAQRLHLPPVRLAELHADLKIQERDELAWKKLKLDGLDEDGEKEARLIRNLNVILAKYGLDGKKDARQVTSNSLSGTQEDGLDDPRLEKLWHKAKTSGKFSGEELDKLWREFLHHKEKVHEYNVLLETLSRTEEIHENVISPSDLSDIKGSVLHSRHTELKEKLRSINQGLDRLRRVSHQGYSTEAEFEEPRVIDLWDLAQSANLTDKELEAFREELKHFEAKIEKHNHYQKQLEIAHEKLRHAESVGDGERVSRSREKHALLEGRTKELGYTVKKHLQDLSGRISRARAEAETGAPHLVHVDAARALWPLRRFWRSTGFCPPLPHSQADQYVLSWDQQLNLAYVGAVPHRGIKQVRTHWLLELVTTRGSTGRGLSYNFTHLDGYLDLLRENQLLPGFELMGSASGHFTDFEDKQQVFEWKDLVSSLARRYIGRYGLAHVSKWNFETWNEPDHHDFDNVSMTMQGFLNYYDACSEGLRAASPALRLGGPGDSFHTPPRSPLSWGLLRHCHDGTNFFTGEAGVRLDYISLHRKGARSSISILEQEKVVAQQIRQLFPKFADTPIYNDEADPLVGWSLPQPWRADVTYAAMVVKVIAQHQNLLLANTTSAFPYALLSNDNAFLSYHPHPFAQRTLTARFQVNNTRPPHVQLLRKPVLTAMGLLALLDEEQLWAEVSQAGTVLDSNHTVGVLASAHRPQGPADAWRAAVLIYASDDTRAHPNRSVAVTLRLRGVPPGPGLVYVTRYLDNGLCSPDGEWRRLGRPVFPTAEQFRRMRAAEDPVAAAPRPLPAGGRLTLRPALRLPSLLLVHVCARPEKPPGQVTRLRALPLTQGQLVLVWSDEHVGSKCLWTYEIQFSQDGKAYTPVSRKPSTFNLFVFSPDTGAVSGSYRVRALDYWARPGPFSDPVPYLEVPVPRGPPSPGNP

B1: VLDLR CR6-8 (receptor)
chain: not shown
notes: range 235-358; also called V CR6-8; not shown: N-terminal hexahistidine and S-peptide from pET30(+)a
B2: LRP6 CR1-3 (receptor, human, UniProt O75581 1247-1363, looked up)
chain: PTCSPQQFTCFTGEIDCIPVAWRCDGFTECEDHSDELNCPVCSESQFQCASGQCIDGALRCNGDANCQDKSDEKNCEVLCLIDQFRCANGQCIGKHKKCDHNVDCSDKSDELDCYPT
notes: range 1247-1363; also called L6 CR1-3; not shown: N-terminal hexahistidine and S-peptide from pET30(+)a
B3: LRP2 CR89 (receptor)
chain: not shown
notes: domain: CR8 and CR9; also called YVWR; L2 CR89; not shown: N-terminal hexahistidine and S-peptide from pET30(+)a
B4: RAP d3 E217K (ligand)
chain: LDRLRRVSHQGYSTEAKFEEPRVIDLWDLEQSANLTDKELEAFREELKHFEAKIEKHNHYQKQLEIAHEKLRHAESVGDGERVSRSREKHALLEGRTKELGYTVKKHLQDLSGRISRAR
notes: forward mutant of wild-type RAP d3; also called RAP E217K; not shown: vector-encoded N-terminal tags of pET30(+)a
B5: RAP d3 H249Y (ligand)
chain: B4 chain with K17E, H49Y
notes: forward mutant of wild-type RAP d3; also called RAP H249Y; not shown: vector-encoded N-terminal tags of pET30(+)a
B6: RAP d3 E251K, K256A, K270E (ligand)
chain: B4 chain with K17E, E51K, K56A, K70E
notes: forward mutant of wild-type RAP d3; also called RAP E251K, K256A, K270E; not shown: vector-encoded N-terminal tags of pET30(+)a
B7: RAP d3 E251K, K270E (ligand)
chain: B4 chain with K17E, E51K, K70E
notes: forward mutant of wild-type RAP d3; also called RAP E251K, K270E; not shown: vector-encoded N-terminal tags of pET30(+)a
B8: RAP d3 E251K (ligand)
chain: B4 chain with K17E, E51K
notes: forward mutant of wild-type RAP d3; also called RAP E251K; not shown: vector-encoded N-terminal tags of pET30(+)a
B9: RAP d3 K270E (ligand)
chain: B4 chain with K17E, K70E
notes: forward mutant of wild-type RAP d3; also called RAP K270E; not shown: vector-encoded N-terminal tags of pET30(+)a
B10: RAP d3 K256A, K270E (ligand)
chain: B4 chain with K17E, K56A, K70E
notes: forward mutant of wild-type RAP d3; also called RAP K256A, K270E; not shown: vector-encoded N-terminal tags of pET30(+)a
B11: LRP6 CR12 (receptor, human, UniProt O75581 1247-1322, looked up)
chain: PTCSPQQFTCFTGEIDCIPVAWRCDGFTECEDHSDELNCPVCSESQFQCASGQCIDGALRCNGDANCQDKSDEKNC
notes: range 1247-1322; also called L6 CR12; not shown: N-terminal hexahistidine and S-peptide from pET30(+)a

In assay [1] the target is T1, RAP-IDU (fusion of RAP and human …). Kind of assay: solid-phase assay: CR protein coated on the plate, RAP-IDU titrated, bound iduronidase activity read as rfu. The protocol: Initially, the binding of wild-type RAP to each CR pair or triplet was measured by solid-phase assay. Purified, refolded CR proteins were bound to Maxisorp plates during overnight incubation at 4° C. CR-loaded wells were blocked by resuspending in TBS Superblock (Pierce) supplemented with 5 mM CaCl2 (blocking buffer) and incubating for 1 hour at room temperature. Blocking buffer was removed and wells were washed once in TBS supplemented with 5 mM CaCl2 and 0.05% Tween-20 (wash buffer). Washed wells were incubated with 10 nM purified RAP-IDU (Tanimoto, et al., (2005) Br J Cancer 92, 278-283) for 2 hours at room temperature in blocking buffer. […] Wells were washed four times with wash buffer and resuspended in acidic PBS pH 5.6 supplemented with 200 μg/mL BSA (assay buffer). Iduronidase activity was measured as described previously using the fluorescent substrate 4-MU-α-L-iduronide (Tanimoto, et al., (2005) Br J Cancer 92, 278-283). No binding of RAP-IDU to empty wells was measured. […] RAP bound more weakly to other CR proteins, with dissociation constants from 30 to over 1000 nM.

In the next assay the target is T2, LRP1 CR3-5 (human).
T2 construct: range 852-973; Amplified from human cDNA; also called L1 CR3-5
Kind of assay: solid-phase assay, coated CR protein, anti-RAP, OD450. The protocol: (§1) Percent of maximum binding is the ratio of the OD at the highest concentration tested for each ligand and the highest OD measured for all such ligands at that concentration.
(§2) Solid phase binding assays-Purified, refolded CR protein (1 μg) was bound to Nunc Maxisorp™ 96-well plates in TBS pH 8 supplemented with 5 mM CaCl₂ (TBSC) overnight at 4° C. Wells were washed with TBSC and then blocked with TBSC containing 2% bovine serum albumin (BSA). RAP ligands were then incubated with the immobilized receptor at a range of concentrations for 2 hours in the above blocking buffer supplemented with 0.05% Tween-20 at room temperature. Control wells contained no added ligand. As an additional control, to determine whether the absence of calcium affected binding, 10 mM EGTA was included in the incubation medium for some samples. Wells were washed with TBSTC and bound ligands detected with polyclonal anti-RAP (BP41/42, 1:1,000, BioMarin). Excess primary antibody was removed and wells washed before incubation with the secondary antibody, HRP-conjugated goat anti rabbit IgG (Bio-Rad). After washing, TMB substrate solutions (Bio-Rad) were added to detect HRP. Color development was stopped with 1N HCl. Absorption at 450 nm was measured with a microplate spectrophotometer (Molecular Devices). Data were plotted and Kd values derived by non-linear regression with the assumption of single-site binding (GraphPad Prism).
(§3) Next, binding of RAP d3 and RAPv2A d3 proteins to LRP1 CR3-5 and LRP2 CR89 was assessed. In order to understand the relative contributions of each RAPv2A d3 mutation to differences in affinity, we also prepared a number of RAPv2A d3 revertants and RAP d3 forward mutants, all comprising sequence variants intermediate between RAPv2A d3 and wild-type RAP d3 (FIGS. 7A and B, Table 1). Samples were tested in triplicate and experiments were repeated at least once. Values from different experiments were combined and a single mean and standard deviation obtained for each concentration of ligand tested.

In assay [2] the target is B3. The assay is described as above. The protocol:
as §1, §2, §3

In assay [3] the target is B3. Kind of assay: solid-phase binding assay: CR protein coated on the plate, ligand titrated, anti-RAP polyclonal and HRP secondary, OD 450 nm. The protocol: as §2
as §3, with “tested. OD values from uncoated wells, receptor-coated wells incubated with buffer alone, and uncoated wells incubated with the highest ligand concentration all gave similar values for all conditions tested. All OD values were corrected by subtracting the OD obtained from uncoated wells.” for “tested.”

Substitutions are numbered along the chain they refer to. In names and notes the source's numbering stands.

Chain of LRP2 CR89 (P98164 1025-1102): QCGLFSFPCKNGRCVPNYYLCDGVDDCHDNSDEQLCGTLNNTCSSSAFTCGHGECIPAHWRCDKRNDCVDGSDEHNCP
T2 sequence (Q07954 852-973): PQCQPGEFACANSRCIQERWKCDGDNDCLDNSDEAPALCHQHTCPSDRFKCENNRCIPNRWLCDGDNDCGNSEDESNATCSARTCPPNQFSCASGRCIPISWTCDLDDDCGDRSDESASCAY

In assay [1], B1 showed a dissociation constant Kd of 170 nM.
In turn, B2 yielded a dissociation constant (Kd) in assay [1] of 328 nM.
The same measure, in the same setting: for B3 the value was 29 nM.
For B4, in the assay with LRP1 CR3-5, the “% max (percent of maximum binding)” value was found to be 91% and the dissociation constant Kd is 9 nM. Further, the “% max (percent of maximum binding)” value in the assay with LRP2 CR89 [2] turned out to be 5%. The binding result in the assay with LRP2 CR89 [3] was “no binding (tested: 100 nM)”.
Regarding B5, the “% max (percent of maximum binding)” value with LRP1 CR3-5 is 90%; with LRP2 CR89 [2], 2%. Binding in the assay with LRP1 CR3-5 was put at a Kd of 28 nM. Further, in the assay with LRP2 CR89 [3], the binding result is reported as “no binding (tested: 100 nM)”.
Turning to B6, the “% max (percent of maximum binding)” value in the assay with LRP1 CR3-5 turned out to be 2%; with LRP2 CR89 [2], 40%. The affinity with LRP2 CR89 [2], expressed as Kd, was 114 nM.
For B7, the “% max (percent of maximum binding)” value with LRP1 CR3-5 came to 4%; with LRP2 CR89 [2], 2%. The binding result with LRP2 CR89 [3] is given as “no binding (tested: 100 nM)”.
As to B8, the entries for the “% max (percent of maximum binding)” value in the assay with LRP1 CR3-5 and in the assay with LRP2 CR89 [2] were 100% and 5%, respectively. Moreover, binding with LRP1 CR3-5 was put at a Kd of 7 nM. The binding result in the assay with LRP2 CR89 [3] is “no binding (tested: 100 nM)”.
As for B9, the “% max (percent of maximum binding)” value was 4% in the assay with LRP1 CR3-5 and 2% with LRP2 CR89 [2]. In addition, the binding result with LRP2 CR89 [3] is reported as “no binding (tested: 100 nM)”.
For the molecule B10, the “% max (percent of maximum binding)” value stood at 2% in the assay with LRP1 CR3-5 and 3% with LRP2 CR89 [2]. In addition, the binding result in the assay with LRP2 CR89 [3] is “no binding (tested: 100 nM)”.
In assay [1], B11 came in with a Kd above 1000 nM.

The record behind these values is US20090269346A1 (RAPTOR PHARMACEUTICAL, published 2009).
